We go through 4 molecules from patent US20240390512A1, “METHODS OF TREATING CHEMOTHERAPY-RESISTANT CANCER WITH AN ANTIBODY-DRUG CONJUGATE” (DAIICHI SANKYO COMPANY, LIMITED, priority 2021, published 2024).

The target of experiment [1] is T1, human CDH6 (full-length and EC domain deletion mutants) (Homo sapiens, UniProt P55285).
T1 construct: each one of the five EC domains could be deleted from full-length human CDH6; 3xFLAG (deletion mutants only, from the vector p3×FLAG-CMV-9); expressed in transfected cells; host or cells: 293α cells
T1 sequence (P55285 54-790): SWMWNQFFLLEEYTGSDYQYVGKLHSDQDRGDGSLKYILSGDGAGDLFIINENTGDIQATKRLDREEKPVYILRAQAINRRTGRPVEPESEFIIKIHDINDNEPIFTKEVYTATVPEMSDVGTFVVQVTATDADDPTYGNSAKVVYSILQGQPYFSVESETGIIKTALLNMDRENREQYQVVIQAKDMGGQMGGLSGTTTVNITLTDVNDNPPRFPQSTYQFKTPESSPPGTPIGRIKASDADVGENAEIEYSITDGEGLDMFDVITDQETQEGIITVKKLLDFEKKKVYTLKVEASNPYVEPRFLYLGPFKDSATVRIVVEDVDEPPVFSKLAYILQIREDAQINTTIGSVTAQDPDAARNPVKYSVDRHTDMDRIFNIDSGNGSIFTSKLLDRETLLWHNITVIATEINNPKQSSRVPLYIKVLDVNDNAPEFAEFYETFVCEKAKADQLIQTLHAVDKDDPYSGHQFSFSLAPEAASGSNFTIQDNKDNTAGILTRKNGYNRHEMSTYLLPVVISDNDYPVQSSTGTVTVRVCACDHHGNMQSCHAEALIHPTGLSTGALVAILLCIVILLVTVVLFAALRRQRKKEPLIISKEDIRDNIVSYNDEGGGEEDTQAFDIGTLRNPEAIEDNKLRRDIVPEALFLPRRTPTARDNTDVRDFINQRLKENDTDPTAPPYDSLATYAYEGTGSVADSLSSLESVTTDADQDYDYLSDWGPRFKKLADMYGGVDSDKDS
Kind of experiment: Epitope analysis of rat anti-CDH6 antibody by flow cytometry using domain deletion mutants. Particulars: for binding to full-length hCDH6: flow cytometry, transfected 293α cells, antibody 20 nM; for epitope on hCDH6: from domain deletion mutant binding. The experiment is classed as binding. The source says:
(§1) The full-length extracellular region of human CDH6 has five extracellular domains, EC1 (SEQ ID NO: 2), EC2 (SEQ ID NO: 3), EC3 (SEQ ID NO: 4), EC4 (SEQ ID NO: 5), and EC5 (SEQ ID NO: 6). A gene to be expressed such that each one of the five EC domains could be deleted from full-length human CDH6 was synthesized by GeneArt, and incorporated into p3×FLAG-CMV-9 vectors for mammalian expression (Sigma-Aldrich Co. LLC) according to a method known to a person skilled in the art in order to produce an expression vector for each domain deletion mutant lacking any one of EC1 to EC5.
(§2) The epitopes to which the rat anti-human CDH6 antibodies bound were identified by flow cytometry analysis using a 293α cell line transfected with each EC domain deletion vector. Using Lipofectamine 2000 (Thermo Fisher Scientific Inc.), each domain deletion mutant expression vector produced in Reference Example 2)-2-1, or pcDNA3.1-hCDH6 for the expression of full-length human CDH6 was transiently introduced into a 293α cell line, which was a cell line derived from HEK293 cells by stable transfection with integrin αv and integrin […] expression vectors. The cells were cultured overnight under conditions of 37° C. and 5% CO2, and thereafter, a cell suspension was prepared. The suspension of the transfected 293α cells was centrifuged, and a supernatant was then removed. Thereafter, the cells were suspended by the addition of each of the 4 rat anti-CDH6 monoclonal antibodies (clone Nos: rG019, rG055, rG056 and rG061), which had been prepared in Reference Example 1)-7, or rat IgG control (R&D Systems, Inc.) (final concentration: 20 nM). The cells were left standing at 4° C. for 1 hour. The cells were washed twice with PBS supplemented with 5% FBS, and then suspended by the addition of Anti-Rat IgG (whole molecule)-FITC antibody produced in rabbit (Sigma-Aldrich Co. LLC) that had been 50-fold diluted with PBS supplemented with 5% FBS. The cells were left standing at 4° C. for 1 hour. The cells were washed twice with PBS supplemented with 5% FBS, followed by detection using a flow cytometer (Canto II; BD Biosciences). The data was analyzed using FlowJo (Tree Star, Inc.). In the histograms of FIGS. 2-1 to 2-6, the abscissa depicts FITC fluorescence intensity indicating the amount of the antibody bound, and the ordinate depicts cell count. […] Fluorescence intensity is enhanced when the antibody binds to full-length hCDH6 or each EC domain deletion mutant on the surface of cells. The rat IgG control binds to none of the transfected cells.
A general note: Flow cytometry measures light scatter and fluorescence of single cells or particles in a stream.

In experiment [2] the target is T2, human CDH6 (full-length and EC domain deletion mutants) (Homo sapiens, UniProt P55285).
T2 construct: each one of the five EC domains could be deleted from full-length human CDH6; 3xFLAG (deletion mutants only, from the vector p3×FLAG-CMV-9); expressed in transfected cells; host or cells: 293α cells
T2 sequence (P55285 160-790): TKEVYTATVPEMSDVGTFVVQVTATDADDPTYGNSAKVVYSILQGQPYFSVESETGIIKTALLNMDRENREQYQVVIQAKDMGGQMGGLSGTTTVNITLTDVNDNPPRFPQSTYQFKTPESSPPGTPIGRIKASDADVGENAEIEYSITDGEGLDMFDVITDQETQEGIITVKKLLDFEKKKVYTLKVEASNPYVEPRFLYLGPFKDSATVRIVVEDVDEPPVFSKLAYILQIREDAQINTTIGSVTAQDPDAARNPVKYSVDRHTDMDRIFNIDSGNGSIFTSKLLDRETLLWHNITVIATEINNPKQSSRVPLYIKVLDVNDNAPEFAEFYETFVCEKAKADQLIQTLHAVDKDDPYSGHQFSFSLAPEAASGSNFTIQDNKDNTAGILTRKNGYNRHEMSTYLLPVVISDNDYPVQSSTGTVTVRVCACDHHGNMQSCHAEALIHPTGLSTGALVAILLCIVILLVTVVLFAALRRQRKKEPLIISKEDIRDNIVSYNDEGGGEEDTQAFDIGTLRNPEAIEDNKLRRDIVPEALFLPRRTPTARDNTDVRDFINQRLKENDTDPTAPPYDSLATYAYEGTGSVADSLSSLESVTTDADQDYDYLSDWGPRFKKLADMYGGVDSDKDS
Described as above. To be noted: flow cytometry; transfected 293α cells; antibody 20 nM. In kind it is binding.
Text: as §1, §2

B1: rG019: rat anti-human CDH6 monoclonal antibody produced by hybridoma rG019; variable regions SEQ ID NO: 10 and 15 (antibody, listed as Rattus norvegicus, V domains shown)
VL: DIQMTQSPSLLSASVGDRVTLNCKASQNIYKNLAWYQQKLGEGPKLLIYDANTLQTGIPSRFSGSGSGSDFTLTISSLQPEDVATYFCQQYYSGWAFGGVTNLELKRA
VH: QVQLQQSGAELVKPGSSVKISCKASGYTFTRNFMHWIKQQPGNGLEWIGWIYCGDGETEYNQKFNGKATLTADRSSSTAYMELSRLTSEDSAVYFCARGVYGGFAGGYFDFWGQGVMVTVSS
B1: in experiment [1], the “binding to full-length hCDH6” value is recorded as “bind” and the “epitope on hCDH6” value was “EC3”. Further, the “binding to EC1 deletion mutant” value in experiment [2] is listed as “bind”.

B2: rG055: rat anti-human CDH6 monoclonal antibody produced by hybridoma rG055; variable regions SEQ ID NO: 20 and 25 (antibody, listed as Rattus norvegicus, V domains shown)
VL: DVQMTHSPSYLAASPGESVSISCKTSKNISNYLVWYQQKPGEAYKLLIYSGSTLQSGTPSRFSGSGSGTDFTLTIRSLEPEDFGLYFCQQYYEKPFTFGSGTKLEIKRA
VH: EVQLQESGPGLVRPSQSLSLSCSVTDYSITSNYWGWIRRFPGNKMEWMGYITYSGYTSYNPSLQSRISITRDTSKNQFFLQLNSVTAEDTATYYCARSINHGGYSYVVDAWGPGASVTVSS
Consider B2, for which, in experiment [1], the “binding to full-length hCDH6” value was “bind” and the “epitope on hCDH6” value was “EC3”. Besides, the “binding to EC1 deletion mutant” value in experiment [2] is given as “bind”.

B3: rG061: rat anti-human CDH6 monoclonal antibody produced by hybridoma rG061; variable regions SEQ ID NO: 40 and 45 (antibody, listed as Rattus norvegicus, V domains shown)
VL: DVQMTQSPSYLAASPGESVSISCKATKSISNYLAWYQQKPGEAYKVLIYSGSTLQSGTPSRFSGSGSGTDFTLTIRSLEPEDFGLYSCQQYYEKPLTFGSGTKLEIKRA
VH: EVQLQESGPGLVKPSQSLSLTCSVTGYSITTYYWGWIRKFPGNKMEWMGYISYSGRTSYNPSLKSRMSITRDASKNQFFLQLNSVTTDDTATYYCARSPINHGGYWYFDFWGPGTMVTVSS
Regarding B3, in experiment [1], the “binding to full-length hCDH6” value is given as “bind” and the “epitope on hCDH6” value is “EC3”. In addition, the “binding to EC1 deletion mutant” value in experiment [2] was “bind”.

B4: rG056: rat anti-human CDH6 monoclonal antibody produced by hybridoma rG056; variable regions SEQ ID NO: 30 and 35 (antibody, listed as Rattus norvegicus, V domains shown)
VL: DVQMTQSPSSLAASPGESVSISCRATKSIGIYLAWYQQKPGKTFKLLIYSGSTLQSGTPSRFSGSGSGTDFTLTIRSLEPEDFGLYFCQQFYENPFTFGSGTKLEIRRA
VH: EVQLQESGPGLVKPSQSLSLTCSVTDYSITTYFWGWIRKFPGNKMEWMGYMSYRGGTSYNPSLKSRISITRDTSKNQFFLQLNSVTTEDTATYYCARCPNYGGHSLVFDYWGQGVMVTVSS
Consider B4, for which, in experiment [1], the “binding to full-length hCDH6” value was “bind” and the “epitope on hCDH6” value was “EC3”. The “binding to EC1 deletion mutant” value in experiment [2] is “bind”.
